Laboratory results published in PMC3548793, “CK2 Phosphorylates Sec31 and Regulates ER-To-Golgi Trafficking” (PLoS ONE, 2013).

Molecular target: T1, GFP-tagged Sec23 (UniProt Q15436 1-765)
T1 construct: Sec23a; plasmid YFP-Sec23a was a gift; The results and legends call it GFP-tagged Sec23; the only Sec23 plasmid named in the methods is YFP-Sec23a; also called GFP-Sec23; YFP-Sec23a; source: HEK293, transfected, in lysate
Assay: co-IP; HEK293 cells co-transfected with FLAG-tagged Sec31 (WT or mutants) and GFP-tagged Sec23 or GFP-Sec13; GFP-tagged protein immunoprecipitated with anti-GFP beads, blot with anti-FLAG; 10 mM HEPES-KOH pH 7.4, 100 mM KCl, 0.1 mM DTT, 2.5 mM MgCl2, 1% Triton X-100, 30 min at 4°C; in Figure 6 cells transfected two days before with or without siRNA1 to CK2 alpha1
Conditions: partners not purified

T1 sequence (Q15436 whole entry): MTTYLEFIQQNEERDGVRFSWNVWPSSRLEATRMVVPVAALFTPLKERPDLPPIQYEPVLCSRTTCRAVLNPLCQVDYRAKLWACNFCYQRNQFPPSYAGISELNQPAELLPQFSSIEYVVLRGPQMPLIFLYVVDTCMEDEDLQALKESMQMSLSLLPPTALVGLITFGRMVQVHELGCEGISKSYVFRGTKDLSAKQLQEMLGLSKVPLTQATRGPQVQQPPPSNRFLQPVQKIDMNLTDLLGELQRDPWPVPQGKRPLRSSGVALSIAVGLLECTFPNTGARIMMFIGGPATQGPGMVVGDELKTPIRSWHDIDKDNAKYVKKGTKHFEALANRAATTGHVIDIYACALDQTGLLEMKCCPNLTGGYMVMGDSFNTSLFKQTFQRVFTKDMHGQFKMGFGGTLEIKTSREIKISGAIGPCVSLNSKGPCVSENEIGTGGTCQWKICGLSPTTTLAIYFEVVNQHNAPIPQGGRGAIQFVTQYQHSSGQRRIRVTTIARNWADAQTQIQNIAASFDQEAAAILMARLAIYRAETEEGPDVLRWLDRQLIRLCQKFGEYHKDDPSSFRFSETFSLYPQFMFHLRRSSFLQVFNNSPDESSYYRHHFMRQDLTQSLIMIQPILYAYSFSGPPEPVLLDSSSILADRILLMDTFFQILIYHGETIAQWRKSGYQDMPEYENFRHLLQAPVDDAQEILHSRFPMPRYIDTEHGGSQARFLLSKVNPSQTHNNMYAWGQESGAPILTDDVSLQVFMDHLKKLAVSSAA

fold change of Sec31 co-precipitated with Sec23, CK2 depleted by siRNA1 against not depleted [fold] | fold change of Sec31 co-precipitated with Sec23 against wild type [fold] | Binder
~3 |  | FLAG-tagged wild type (WT) Sec31 (natural protein, human, UniProt O94979 1-1220, looked up, Sec31a, human, cDNA clone KIAA 0905 from Kazusa DNA Research Institute, subcloned into p3×FLAG-CMV; In the cells partly phosphorylated (S527, S799, S1163, T1165 found by mass spectrometry on endogenous Sec31); also called FLAG-Sec31; human Sec31a; source: HEK293, transfected, in lysate) MKLKEVDRTAMQAWSPAQNHPIYLATGTSAQQLDATFSTNASLEIFELDLSDPSLDMKSCATFSSSHRYHKLIWGPYKMDSKGDVSGVLIAGGENGNIILYDPSKIIAGDKEVVIAQNDKHTGPVRALDVNIFQTNLVASGANESEIYIWDLNNFATPMTPGAKTQPPEDISCIAWNRQVQHILASASPSGRATVWDLRKNEPIIKVSDHSNRMHCSGLAWHPDVATQMVLASEDDRLPVIQMWDLRFASSPLRVLENHARGILAIAWSMADPELLLSCGKDAKILCSNPNTGEVLYELPTNTQWCFDIQWCPRNPAVLSAASFDGRISVYSIMGGSTDGLRQKQVDKLSSSFGNLDPFGTGQPLPPLQIPQQTAQHSIVLPLKKPPKWIRRPVGASFSFGGKLVTFENVRMPSHQGAEQQQQQHHVFISQVVTEKEFLSRSDQLQQAVQSQGFINYCQKKIDASQTEFEKNVWSFLKVNFEDDSRGKYLELLGYRKEDLGKKIALALNKVDGANVALKDSDQVAQSDGEESPAAEEQLLGEHIKEEKEESEFLPSSGGTFNISVSGDIDGLITQALLTGNFESAVDLCLHDNRMADAIILAIAGGQELLARTQKKYFAKSQSKITRLITAVVMKNWKEIVESCDLKNWREALAAVLTYAKPDEFSALCDLLGTRLENEGDSLLQTQACLCYICAGNVEKLVACWTKAQDGSHPLSLQDLIEKVVILRKAVQLTQAMDTSTVGVLLAAKMSQYANLLAAQGSIAAALAFLPDNTNQPNIMQLRDRLCRAQGEPVAGHESPKIPYEKQQLPKGRPGPVAGHHQMPRVQTQQYYPHGENPPPPGFIMHGNVNPNAAGQLPTSPGHMHTQVPPYPQPQPYQPAQPYPFGTGGSAMYRPQQPVAPPTSNAYPNTPYISSASSYTGQSQLYAAQHQASSPTSSPATSFPPPPSSGASFQHGGPGAPPSSSAYALPPGTTGTLPAASELPASQRTGPQNGWNDPPALNRVPKKKKMPENFMPPVPITSPIMNPLGDPQSQMLQQQPSAPVPLSSQSSFPQPHLPGGQPFHGVQQPLGQTGMPPSFSKPNIEGAPGAPIGNTFQHVQSLPTKKITKKPIPDEHLILKTTFEDLIQRCLSSATDPQTKRKLDDASKRLEFLYDKLREQTLSPTITSGLHNIARSIETRNYSEGLTMHTHIVSTSNFSETSAFMPVLKVVLTQANKLGV
 | 3 | FLAG-tagged Sec31 S527A/S799A (natural protein, human, UniProt O94979 1-1220, looked up, Sec31a, human, cDNA clone KIAA 0905, point mutations by QuikChange; also called S527/S799; source: HEK293, transfected, in lysate) MKLKEVDRTAMQAWSPAQNHPIYLATGTSAQQLDATFSTNASLEIFELDLSDPSLDMKSCATFSSSHRYHKLIWGPYKMDSKGDVSGVLIAGGENGNIILYDPSKIIAGDKEVVIAQNDKHTGPVRALDVNIFQTNLVASGANESEIYIWDLNNFATPMTPGAKTQPPEDISCIAWNRQVQHILASASPSGRATVWDLRKNEPIIKVSDHSNRMHCSGLAWHPDVATQMVLASEDDRLPVIQMWDLRFASSPLRVLENHARGILAIAWSMADPELLLSCGKDAKILCSNPNTGEVLYELPTNTQWCFDIQWCPRNPAVLSAASFDGRISVYSIMGGSTDGLRQKQVDKLSSSFGNLDPFGTGQPLPPLQIPQQTAQHSIVLPLKKPPKWIRRPVGASFSFGGKLVTFENVRMPSHQGAEQQQQQHHVFISQVVTEKEFLSRSDQLQQAVQSQGFINYCQKKIDASQTEFEKNVWSFLKVNFEDDSRGKYLELLGYRKEDLGKKIALALNKVDGANVALKDSDQVAQADGEESPAAEEQLLGEHIKEEKEESEFLPSSGGTFNISVSGDIDGLITQALLTGNFESAVDLCLHDNRMADAIILAIAGGQELLARTQKKYFAKSQSKITRLITAVVMKNWKEIVESCDLKNWREALAAVLTYAKPDEFSALCDLLGTRLENEGDSLLQTQACLCYICAGNVEKLVACWTKAQDGSHPLSLQDLIEKVVILRKAVQLTQAMDTSTVGVLLAAKMSQYANLLAAQGSIAAALAFLPDNTNQPNIMQLRDRLCRAQGEPVAGHEAPKIPYEKQQLPKGRPGPVAGHHQMPRVQTQQYYPHGENPPPPGFIMHGNVNPNAAGQLPTSPGHMHTQVPPYPQPQPYQPAQPYPFGTGGSAMYRPQQPVAPPTSNAYPNTPYISSASSYTGQSQLYAAQHQASSPTSSPATSFPPPPSSGASFQHGGPGAPPSSSAYALPPGTTGTLPAASELPASQRTGPQNGWNDPPALNRVPKKKKMPENFMPPVPITSPIMNPLGDPQSQMLQQQPSAPVPLSSQSSFPQPHLPGGQPFHGVQQPLGQTGMPPSFSKPNIEGAPGAPIGNTFQHVQSLPTKKITKKPIPDEHLILKTTFEDLIQRCLSSATDPQTKRKLDDASKRLEFLYDKLREQTLSPTITSGLHNIARSIETRNYSEGLTMHTHIVSTSNFSETSAFMPVLKVVLTQANKLGV
